In patent US20250250330A1 (REVOPSIS THERAPEUTICS, published 2025):
Where “and” joins values, the source holds several entries; their conditions need not be identical. Equal entries are not always repeated.

Columns and labels:
[1] = molecular target: T1, Recombinant human VEGF165 (Peprotech, Cat #100-20) (human, UniProt P15692-4 27-191); assay: ELISA on rhVEGF165; biotinylated anti-VpreB antibody and streptavidin-HRP detection
T1 construct: Bought protein; also called rhVEGF165; rh VEGF165

[2] = molecular target: T2, rdVEGF163 (canine/dog; R&D 1603-CV-010/CF) (Canine/Dog, UniProt Q9MYV3-3 27-190, limits assumed); assay: ELISA on coated dog VEGF-A
T2 construct: Bought protein; also called Dog VEGF-A
T2 sequence (looked up): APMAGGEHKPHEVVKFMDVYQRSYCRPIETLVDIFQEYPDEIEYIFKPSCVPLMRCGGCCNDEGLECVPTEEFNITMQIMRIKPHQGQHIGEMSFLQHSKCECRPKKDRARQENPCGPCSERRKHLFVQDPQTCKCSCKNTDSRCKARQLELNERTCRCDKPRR

[3] = molecular target: T3, Recombinant human VEGF121 (Peprotech, Cat #100-20A) (human, UniProt P15692-9 27-147); assay: ELISA; rhVEGF121 coated at 1 ug/mL, anti-human IgG Fc-HRP detection (RO-101_Sample 1)
T3 construct: Bought protein; also called rhVEGF121; rh VEGF121
T3 sequence (looked up): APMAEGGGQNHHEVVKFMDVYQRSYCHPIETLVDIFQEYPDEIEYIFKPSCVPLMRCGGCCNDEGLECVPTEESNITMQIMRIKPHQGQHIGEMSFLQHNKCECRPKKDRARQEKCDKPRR
Description: (§1) Donkey anti-human IgG Fcγ-HRP (Jackson ImmunoResearch Laboratories, Cat #709-035-098) was used for detection and visualized by TMB substrate. OD450 nm readings were measured by Victor 3 (PerkinElmer 1420 Multilabel Counter).

[4] = molecular target: T4, rhVEGF-D (AcroBio_VED-H5228) (human, UniProt O43915 89-205, limits assumed); assay: ELISA: rhVEGF-D_AcroBio coated at 1 ug/mL, RO-101_Sample 1 titrated, detected with anti-human IgG Fc-gamma-HRP
T4 construct: domain: PDGF domain; Bought protein; not shown: His tag
T4 sequence (looked up): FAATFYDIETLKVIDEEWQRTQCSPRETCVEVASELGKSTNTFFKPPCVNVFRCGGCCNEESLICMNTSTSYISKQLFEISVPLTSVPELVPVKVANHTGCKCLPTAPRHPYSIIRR
Description: Different target proteins were used to coat Corning 9017 medium binding plates at 1 μg/mL and 100 μl per well. Donkey anti-human IgG Fcγ-HRP was used for detection. OD450 nm readings were measured by Victor 3.

[5] = molecular target: T1, Recombinant human VEGF165 (Peprotech, …); assay: ELISA; rhVEGF165 coated, anti-human IgG Fc-HRP detection
Description: (§2) The binding was detected by HRP-conjugated donkey anti-human IgG Fcγ antibody (Jackson ImmunoResearch Laboratories, Cat #709-035-098).

[6] = molecular target: T5, Recombinant human ANG-2 (R&D Systems, Cat #623-AN-025/CF) (human, UniProt O15123 19-496, limits assumed); assay: ELISA on rhANG-2 by an independent team; ratio of average EC50 against Faricimab
T5 construct: also called rhANG-2
T5 sequence (looked up): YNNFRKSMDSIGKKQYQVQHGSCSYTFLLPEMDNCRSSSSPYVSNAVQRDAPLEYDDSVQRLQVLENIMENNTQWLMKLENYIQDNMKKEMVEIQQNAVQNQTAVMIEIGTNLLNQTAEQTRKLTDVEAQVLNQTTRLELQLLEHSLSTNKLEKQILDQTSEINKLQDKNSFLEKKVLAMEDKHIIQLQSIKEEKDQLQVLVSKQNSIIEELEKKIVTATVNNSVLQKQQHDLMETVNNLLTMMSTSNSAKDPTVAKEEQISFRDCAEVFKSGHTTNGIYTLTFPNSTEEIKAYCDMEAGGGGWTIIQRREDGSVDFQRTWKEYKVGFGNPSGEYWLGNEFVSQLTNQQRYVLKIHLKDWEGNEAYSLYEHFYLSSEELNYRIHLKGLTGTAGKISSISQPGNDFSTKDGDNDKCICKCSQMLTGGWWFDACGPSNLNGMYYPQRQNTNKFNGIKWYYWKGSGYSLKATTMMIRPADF

[7] = molecular target: T1, Recombinant human VEGF165 (Peprotech, …); assay: ELISA; rhVEGF165 coated, anti-human IgG Fc-HRP detection; remark: listed apart in the source
Description: VEGF₁₆₅ was used to coat Corning 9017 medium binding plates. […] Donkey anti-human IgG Fcγ-HRP (Jackson ImmunoResearch Laboratories, Cat #709-035-098) was used for detection and visualized by TMB substrate. OD450 nm readings were measured by Victor 3 with PerkinElmer 1420 Multilabel Counter.

[8] = molecular target: T5, Recombinant human ANG-2 (R&D Systems, …); assay: ELISA; rhANG-2 (R&D) coated, anti-human IgG Fc-HRP detection
Description: as §2

[9] = molecular target: T3, Recombinant human VEGF121 (Peprotech, …); assay: ELISA; rhVEGF121 coated, anti-human IgG Fc-HRP detection
Description: Donkey anti-human IgG Fcγ-HRP was used for detection (Jackson ImmunoResearch Laboratories, Cat #709-035-098) and visualized by TMB substrate. OD450 nm readings were measured by Victor 3 (PerkinElmer 1420 Multilabel Counter).

[10] = molecular target: T1, Recombinant human VEGF165 (Peprotech, …); assay: ELISA; rhVEGF165 coated at 1 ug/mL, anti-human IgG Fc-HRP detection (RO-101_Sample 1)
Description: as §1

[11] = molecular target: T6, His-tagged recombinant human ANG-2 (AcroBiosystems, Cat #AN2-H52H4) (human, UniProt O15123 275-496); assay: ELISA on coated human ANG-2
T6 construct: also called rhANG-2; rhANG-2-His; not shown: His tag
T6 sequence (looked up): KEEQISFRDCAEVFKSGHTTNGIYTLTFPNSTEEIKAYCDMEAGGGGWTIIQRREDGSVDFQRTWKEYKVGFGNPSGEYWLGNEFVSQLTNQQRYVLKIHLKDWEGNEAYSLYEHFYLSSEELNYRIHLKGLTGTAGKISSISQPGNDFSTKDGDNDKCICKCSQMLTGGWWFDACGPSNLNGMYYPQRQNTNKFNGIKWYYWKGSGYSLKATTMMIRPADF

B1: RO-101 VEGF/ANG-2 bispecific surrobody (bispecific antibody, human IgG1, L234A L235A)
heavy 1: not shown
heavy 2: EVQLVESGGGLVKPGGSLRLSCAASGFTFSSYGMHWVRQAPGKGLEWVAGISADSGDKNYADSVKGRFTISRDNAKNSLYLQMNSLRAEDTAVYYCAKEFISWIYTFDYLDYWGQGTLVTVSSASTKGPSVFPLAPSSKSTSGGTAALGCLVKDYFPEPVTVSWNSGALTSGVHTFPAVLQSSGLYSLSSVVTVPSSSLGTQTYICNVNHKPSNTKVDKKVEPKSCDKTHTCPPCPAPEAAGGPSVFLFPPKPKDTLMISRTPEVTCVVVDVSHEDPEVKFNWYVDGVEVHNAKTKPREEQYNSTYRVVSVLTVLHQDWLNGKEYKCKVSNKALPAPIEKTISKAKGQPREPQVCTLPPSRDELTKNQVSLSCAVKGFYPSDIAVEWESNGQPENNYKTTPPVLDSDGSFFLVSKLTVDKSRWQQGNVFSCSVMHEALHNHYTQKSLSLSPG
light: QPVLHQPPAMSSALGTTIRLTCTLRNDHDIGVYSVYWYQQRPGHPPRFLLRYFSQSDKSQGPQVPPRFSGSKDVARNRGYLSISELQPEDEAMYYCAMGARSSVTHVFGSGTQLTVLSQPKATPSVTLFPPSSEELQANKATLVCLMNDFYPGILTVTWKADGTPITQGVEMTTPSKQSNNKYAASSYLSLTPEQWRSRRSYSCQVMHEGSTVEKTVAPAECS
notes: Format SgG1; also called Sample 1
- EC50 [1]: 0.0057 nM
- EC50 [2]: 0.0237 nM
- EC50 [3]: 0.0146 nM
- binding result [4]: no binding (tested: 100 nM (Log(nM) 2))
- EC50 [5]: 0.0401 nM and 0.0556 nM and 0.0417 nM
- fold better than Faricimab [6]: 58 fold
- EC50 [7]: 0.0231 nM
- EC50 [8]: 0.0536 nM and 0.0498 nM and 0.0449 nM
- EC50 [9]: 0.0086 nM
- EC50 [10]: 0.0135 nM
- EC50 [11]: 0.007 nM
